Measured values from publication doi:10.1101/2021.06.17.448816 (bioRxiv, 2021).

T1: Pol α catalytic subunit (334-1462), as in the truncated human primosome (human, UniProt P09884 334-1462)
T1 construct: also called DNA polymerase α; catalytic subunit of Pol α
T1 sequence (looked up): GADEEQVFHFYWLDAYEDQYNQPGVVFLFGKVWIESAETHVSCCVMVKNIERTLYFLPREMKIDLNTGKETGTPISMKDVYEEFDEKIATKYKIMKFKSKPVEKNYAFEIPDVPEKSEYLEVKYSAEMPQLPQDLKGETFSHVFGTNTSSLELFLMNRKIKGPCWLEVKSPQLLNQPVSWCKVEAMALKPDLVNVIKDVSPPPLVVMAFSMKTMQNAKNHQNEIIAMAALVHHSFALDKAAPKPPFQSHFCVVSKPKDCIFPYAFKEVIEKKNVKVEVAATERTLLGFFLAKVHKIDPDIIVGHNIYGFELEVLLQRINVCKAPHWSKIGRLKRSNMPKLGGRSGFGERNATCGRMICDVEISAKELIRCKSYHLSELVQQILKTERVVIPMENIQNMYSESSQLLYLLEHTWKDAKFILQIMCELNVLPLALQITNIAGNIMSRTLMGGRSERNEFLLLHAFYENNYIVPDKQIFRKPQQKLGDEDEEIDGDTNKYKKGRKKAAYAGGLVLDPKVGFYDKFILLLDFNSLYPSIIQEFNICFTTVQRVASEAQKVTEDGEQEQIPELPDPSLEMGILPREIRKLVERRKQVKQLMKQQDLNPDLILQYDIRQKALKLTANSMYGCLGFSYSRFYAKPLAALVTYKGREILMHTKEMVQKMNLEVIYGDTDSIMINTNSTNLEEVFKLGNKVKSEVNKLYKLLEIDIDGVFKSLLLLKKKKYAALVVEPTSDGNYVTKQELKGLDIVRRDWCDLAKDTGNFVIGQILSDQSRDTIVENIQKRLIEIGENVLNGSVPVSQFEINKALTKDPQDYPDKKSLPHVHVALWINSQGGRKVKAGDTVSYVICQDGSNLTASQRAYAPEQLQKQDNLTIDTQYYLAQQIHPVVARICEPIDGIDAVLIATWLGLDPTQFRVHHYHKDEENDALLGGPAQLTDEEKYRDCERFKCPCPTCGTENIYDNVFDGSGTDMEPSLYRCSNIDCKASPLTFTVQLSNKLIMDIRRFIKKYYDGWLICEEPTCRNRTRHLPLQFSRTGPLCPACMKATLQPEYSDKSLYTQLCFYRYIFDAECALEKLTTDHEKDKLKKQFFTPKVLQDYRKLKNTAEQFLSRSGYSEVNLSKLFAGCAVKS

B1: SARS-CoV nsp1 (13-127), His6-MBP tag cleaved (domain or fragment)
chain: HVQLSLPVLQVRDVLVRGFGDSVEEALSEAREHLKNGTCGLVELEKGVLPQLEQPYVFIKRSDALSTNHGHKVVELVAEMDGIQYGRSGITLGVLVPHVGETPIAYRNVLLRKNG
B2: SARS-CoV nsp1 middle domain (13-127), His6-MBP fusion (domain or fragment)
chain: B1 chain
B3: MBP-tagged SARS-CoV nsp1 (full-length, His6-MBP fusion) (natural protein)
chain: MESLVLGVNEKTHVQLSLPVLQVRDVLVRGFGDSVEEALSEAREHLKNGTCGLVELEKGVLPQLEQPYVFIKRSDALSTNHGHKVVELVAEMDGIQYGRSGITLGVLVPHVGETPIAYRNVLLRKNGNKGAGGHSYGIDLKSYDLGDELGTDPIEDYEQNWNTKHGSGALRELTRELNGG
B4: SARS-CoV-2 nsp1 middle domain (13-127), His6-MBP fusion (domain or fragment)
chain: HVQLSLPVLQVRDVLVRGFGDSVEEVLSEARQHLKDGTCGLVEVEKGVLPQLEQPYVFIKRSDARTAPHGHVMVELVAELEGIQYGRSGETLGVLVPHVGEIPVAYRKVLLRKNG

Experiments:
Conditions in all cases: both partners purified
[1] = target: T2, Truncated human primosome (Pol α: 334-1462; B subunit: 149-598; PriS: 1-420; PriL: 1-509) (human, UniProt P09884 334-1462; Q14181 149-598; P49642 1-420; P49643 1-509); assay: […]) in 25 mM HEPES pH 7.2, 150 mM KCl, 1 mM DTT; […]
T2 construct: also called truncated primosome; Pol α - primase

[2] = target: T1, Pol α catalytic subunit (334-1462), as …; assay: as above
[3] = target: T2, Truncated human primosome (Pol α: …); assay: pull-down
[4] = target: T3, Full-length human primosome (Pol α: 1-1462; B subunit: 1-598; PriS: 1-420; PriL: 1-509) (human, UniProt P09884 1-1462; Q14181 1-598; P49642 1-420; P49643 1-509); assay: pull-down
T3 construct: also called DNA polymerase α - primase complex; Pol α - primase
T3 sequence (Q14181 whole entry, chain 2 of 3): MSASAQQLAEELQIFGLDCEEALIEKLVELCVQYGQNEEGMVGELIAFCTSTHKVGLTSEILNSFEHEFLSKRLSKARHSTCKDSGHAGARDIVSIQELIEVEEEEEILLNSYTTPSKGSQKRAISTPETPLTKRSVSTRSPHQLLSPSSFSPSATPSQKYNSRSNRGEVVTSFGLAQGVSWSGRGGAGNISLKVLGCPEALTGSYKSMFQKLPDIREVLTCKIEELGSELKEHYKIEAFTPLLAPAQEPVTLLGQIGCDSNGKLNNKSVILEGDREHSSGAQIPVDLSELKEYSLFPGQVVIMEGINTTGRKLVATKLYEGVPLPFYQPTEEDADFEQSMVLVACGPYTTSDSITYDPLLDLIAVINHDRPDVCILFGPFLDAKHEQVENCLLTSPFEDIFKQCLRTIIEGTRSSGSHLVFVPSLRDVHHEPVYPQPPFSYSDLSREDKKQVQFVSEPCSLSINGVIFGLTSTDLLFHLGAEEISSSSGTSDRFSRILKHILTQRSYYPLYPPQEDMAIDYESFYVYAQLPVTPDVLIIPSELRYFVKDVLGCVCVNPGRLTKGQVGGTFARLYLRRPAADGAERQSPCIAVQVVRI
T3 sequence (P49642 whole entry, chain 3 of 3): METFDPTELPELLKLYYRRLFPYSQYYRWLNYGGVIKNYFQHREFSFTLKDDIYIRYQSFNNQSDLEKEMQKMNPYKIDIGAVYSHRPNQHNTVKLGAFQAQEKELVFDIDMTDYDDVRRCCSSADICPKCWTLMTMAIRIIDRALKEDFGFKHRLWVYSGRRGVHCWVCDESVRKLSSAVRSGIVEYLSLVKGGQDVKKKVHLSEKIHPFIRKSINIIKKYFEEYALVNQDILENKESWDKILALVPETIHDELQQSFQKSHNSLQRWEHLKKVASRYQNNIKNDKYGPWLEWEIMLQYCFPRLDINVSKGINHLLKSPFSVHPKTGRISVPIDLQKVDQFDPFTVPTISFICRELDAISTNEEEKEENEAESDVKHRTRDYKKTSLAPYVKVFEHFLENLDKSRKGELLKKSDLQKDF
T3 sequence (P49643 whole entry, chain 4 of 3): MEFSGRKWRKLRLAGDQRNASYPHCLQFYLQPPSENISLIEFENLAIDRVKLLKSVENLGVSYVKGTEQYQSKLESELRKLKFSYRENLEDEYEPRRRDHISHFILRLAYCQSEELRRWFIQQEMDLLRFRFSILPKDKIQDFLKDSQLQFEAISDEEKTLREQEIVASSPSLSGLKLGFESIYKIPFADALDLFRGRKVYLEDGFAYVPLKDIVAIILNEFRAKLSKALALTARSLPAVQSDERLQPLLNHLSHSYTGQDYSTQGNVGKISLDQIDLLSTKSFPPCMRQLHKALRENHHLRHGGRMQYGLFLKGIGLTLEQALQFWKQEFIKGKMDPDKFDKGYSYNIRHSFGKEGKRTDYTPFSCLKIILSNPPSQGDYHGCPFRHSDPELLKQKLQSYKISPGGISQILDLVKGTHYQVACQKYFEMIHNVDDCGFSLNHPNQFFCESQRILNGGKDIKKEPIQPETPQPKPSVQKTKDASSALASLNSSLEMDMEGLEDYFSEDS

T2 sequence (Q14181 149-598, chain 2 of 3): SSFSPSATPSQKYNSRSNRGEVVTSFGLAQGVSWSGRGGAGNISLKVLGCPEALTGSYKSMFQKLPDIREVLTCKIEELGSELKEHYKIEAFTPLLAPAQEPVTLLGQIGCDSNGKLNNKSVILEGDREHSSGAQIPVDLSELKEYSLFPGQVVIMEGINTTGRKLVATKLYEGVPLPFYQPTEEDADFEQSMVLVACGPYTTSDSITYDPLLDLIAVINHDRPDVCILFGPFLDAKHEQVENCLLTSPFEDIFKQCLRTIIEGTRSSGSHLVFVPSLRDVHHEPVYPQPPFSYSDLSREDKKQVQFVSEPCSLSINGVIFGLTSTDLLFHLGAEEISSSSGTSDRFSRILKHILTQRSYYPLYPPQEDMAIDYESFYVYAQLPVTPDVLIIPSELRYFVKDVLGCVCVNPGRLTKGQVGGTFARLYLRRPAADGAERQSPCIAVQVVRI
T2 sequence (P49642 whole entry, chain 3 of 3, the tested form may be a part): as the sequence (P49642 whole entry, chain 3 of 3) above
T2 sequence (P49643 whole entry, chain 4 of 3, the tested form may be a part): as the sequence (P49643 whole entry, chain 4 of 3) above

Binder | binding result [1] | binding result [2] | binding result [3] | binding result [4]
B1 | binds | binds | – | –
B2 | – | – | binds | –
B3 | – | – | binds | binds
B4 | – | – | binds | –
